How the values were obtained:
MT1-F/NGFR = molecular target: T1, MT1-F/NGFR (Homo sapiens, UniProt P04629+P50281); test: Dimer formation of MT1-F/NGFR chimera on the cell surface (anti-phosphotyrosine PY20 Western blotting, co-transfected COS1 cells); type: cell-based; details: for competition in the dimer formation of MT1-F/NGFR (PY20 band intensity): COS1 cells co-transfected with MT1-F/NGFR and the construct (FIG. 23)
T1 construct: expressed in transfected cells; host or cells: COS1 cells (pSG5 vector)
Procedure: Cell lysate samples were subjected to separation on SDS-PAGE, followed by a transfer of the proteins in the gel to nitrocellulose membranes (Hybond-ECL, Amersham Pharmacia Biotech, Inc.). After blocking with a solution of 10% skim milk dissolved in TBS (20 mM Tris-HCl buffer, pH 7.5 containing 150 mM NaCl), the membrane was exposed to a monoclonal anti-FLAG M2 antibody (3 μg/ml) for detecting FLAG-tagged MT1-MMP and its mutants. In order to visualize the immunoreactive bands, the membrane was further exposed to an alkaline phosphatase-conjugated goat anti-mouse IgG antibody. For the purpose of detecting a phosphotyrosine residue in chimera proteins, a monoclonal anti-phosphotyrosine antibody, PY20 (1 μg/ml) was used.
Cell lysates were subjected to SDS/PAGE, followed by a transfer of the proteins to nitrocellulose membranes (Hybond-ECL, Amersham Pharmacia Biotech, Inc.). MT1-MMP, MT1Cat, MT1-MT4PEX and MT1-F/NGFR were detected with a polyclonal anti-CAT antibody (1:2000), while MT1-MMP, MT1PEX and MT1-F/NGFR with an anti-PEX antibody (222-1D8, 0.5 μg/ml). FLAG-tagged MT1-MMP and its mutants were detected with an anti-FLAG M2 antibody (3 μg/ml). Chimera proteins containing a phosphotyrosine residue were detected with a monoclonal mouse anti-phosphotyrosine antibody, PY20 (ICN Biochemicals, Inc., OH, USA; 1 μg/ml). Immunoreactive bands were visualized with an alkaline phosphatase-conjugated goat anti-mouse IgG or anti-rabbit IgG (Sigma).
NGFR forms a dimer through binding to its ligand. Subsequently, tyrosine residues in the cytoplasmic domain are trans-phosphorylated by its tyrosine kinase (Jing, S. et al., Neuron, 9: 1067-1079, 1992; Lemmon, M. A. et al., Trends Biochem. Sci., 19: 459-463, 1994).
By utilizing the above principle, a chimeric protein is first constructed consisting of the ectodomain of MT1-MMP and the transmembrane (TM) and cytoplasmic (CP) domains of NGFR (FIG. 8) in order to test for direct complex formation. When the ectodomain of this chimeric protein forms a homophilic complex in a similar manner, tyrosine residues in the cytoplasmic domain will be phosphorylated.
It is investigated whether co-expression of MT1PEX-F and MT1-F competes in the dimer formation of MT1-F/NGFR or not. For the test, the expression plasmids for MT1-F/NGFR and MT1PEX-F were co-transfected into COS1 cells.
Next, the expression plasmids for MT1-F/NGFR and FLAG-tagged MT1PEX (MT1PEX-F), MT1Cat (MT1Cat-F), or MT1-F were co-transfected to investigate if the dimer formation of the chimera could be disrupted or not.

MT1-F = molecular target: T2, MT1-F (Homo sapiens, UniProt P50281); test: 125I-labeled TIMP-2 binding assay on transfected CHO-K1 cells
T2 construct: expressed in transfected cells
Procedure: FIG. 12: The efficacies of MT1PEX-F on the proteolytic activity and TIMP-2 binding ability of MT1-F expressed on a cell surface are shown. As is shown in FIG. 12 through FIG. 14, CHO-K1 cells were transfected with the expression vectors for MT1-F, MT1PEX-F or MT1Cat-F, or a vector alone (Mock). The cells were then treated with trypsin, and seeded on DQ™-gelatin coated cover slips for proteolytic activity tests (FIG. 13) and in 24-well plates for TIMP-2 binding assays (FIG. 12) and for proMMP-2 activation (FIG. 14). Results are all from the same transfection experiment. […]
Next, to determine if MT1PEX-F affects the catalytic activity of MT1-MMP on the cell surface or not, tests for gelatin degrading activity and binding capacity to TIMP-2 were conducted using cells transfected in the same incubator. […] Transfected cells on the DQ™ gelatin-coated cover slip as shown in FIG. 13 were incubated in a medium at 37° C. for 18 hrs, and the generated fluorescence was analyzed using confocal microscopy. […] MT1-MMP specific binding was calculated by subtracting the datum obtained in the presence of BB-94 (50 μM) from each datum derived from the corresponding experiments. […] DQ™ gelatin is a fluorescence-quenched gelatin, which fluoresces upon proteolytic cleavage. […]

| Substance | competition in the dimer formation of MT1-F/NGFR (PY20 band intensity) (MT1-F/NGFR) | TIMP-2 binding capacity as compared to the cells bearing MT1-F (MT1-F; CHO-K1 cells expressing the mutant (FIG. 12)) | decrease of phosphotyrosine signal (MT1-F/NGFR; COS1 cells co-expressing MT1-F/NGFR and Rac1DA (FIG. 24)) | phosphorylation of MT1-F/NGFR (MT1-F/NGFR; COS1 cells co-transfected with MT1-F/NGFR and MT1PEX-F at indicated DNA ratio (FIG. 10)) | inhibition of the phosphorylation of MT1-F/NGFR (MT1-F/NGFR; COS1 cells co-transfected with MT1-F/NGFR, increasing levels of MT1PEX-F expression, PY20 band intensity (FIG. 10)) | decrease in TIMP-2 binding on the cell surface as compared with MT1-F alone (MT1-F; CHO-K1 cells co-transfected with MT1-F, 25 nM 125I-TIMP-2, 0° C., 1 hr, BB-94 (50 μM) background subtracted (FIG. 12)) |
| --- | --- | --- | --- | --- | --- | --- |
| MT1Cat-F: PEX-deleted FLAG-tagged MT1-MMP (Δ Ile318-Gly535) | did not decrease the intensity of the band | equivalent TIMP-2 binding capacity | – | – | – | – |
| MT1PEX-F: Catalytic domain-deleted FLAG-tagged MT1-MMP (Δ Tyr112-Pro312), expressed by transfection | effectively competed | – | 43% | inhibited depending on the expression level | ≥ 90% | 37% |
